T1: hu-IL-36β (human IL-36β, N-terminally truncated active form R5-E157) (human)
T1 sequence: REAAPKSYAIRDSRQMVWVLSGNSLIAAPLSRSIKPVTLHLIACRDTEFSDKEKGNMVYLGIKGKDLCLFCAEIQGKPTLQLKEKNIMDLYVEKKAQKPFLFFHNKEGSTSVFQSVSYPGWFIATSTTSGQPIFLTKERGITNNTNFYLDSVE


Tests used:
Experiment in all cases: ELISA, yeast Fab supernatant, anti-Fab-HRP
[1] = biological target: T1, hu-IL-36β (human IL-36β, N-terminally truncated active form R5-E157) (human)
[2] = biological target: hu-IL-36α (human IL-36α, N-terminally truncated active form K6-F158) (human) (UniProt Q9UHA7)
Sequence of hu-IL-36α (human IL-36α, N-terminally truncated active form K6-F158) (human) (Q9UHA7 6-158 limits assumed): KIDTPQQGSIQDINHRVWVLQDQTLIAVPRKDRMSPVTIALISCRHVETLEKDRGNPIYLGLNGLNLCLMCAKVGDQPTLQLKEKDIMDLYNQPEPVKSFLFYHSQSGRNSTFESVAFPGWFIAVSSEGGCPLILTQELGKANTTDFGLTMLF

[3] = biological target: hu-IL-36γ (human IL-36γ, N-terminally truncated active form S18-D169) (human) (UniProt Q9NZH8)
Sequence of hu-IL-36γ (human IL-36γ, N-terminally truncated active form S18-D169) (human) (Q9NZH8 18-169 limits assumed): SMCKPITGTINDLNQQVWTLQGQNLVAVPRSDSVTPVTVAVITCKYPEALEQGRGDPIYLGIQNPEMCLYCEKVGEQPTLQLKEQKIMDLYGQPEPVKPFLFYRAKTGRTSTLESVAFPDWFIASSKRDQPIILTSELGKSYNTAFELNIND

Row | Binder | ELISA OD450 [1] [OD450] | ELISA OD450 [2] [OD450] | ELISA OD450 [3] [OD450]
1 | mAb2.0 Fab (yeast clone culture supernatant) (Fab, V domains shown) VH: QLQLQESGPGLVKPSETLSLTCTVSGGSISTSSYYWGWIRQPPGKGLEWIGSIYYTGNTYYNPSLKSRVTISVDTSKNQFSLKLSSVTAADTAVYYCARVRYGVGVPRYFDPWGQGTLVTVSS VL: QSVLTQPPSVSGAPGQRVTISCTGSSSNIGAHYDVHWYQQLPGTAPKLLIYGNDNRPSGVPDRFSGSKSGTSASLAITGLQAEDEADYYCQSYDYSLSGYVFGGGTKLTVL | 0.0604 |  | 
2 | mAb3.0 Fab (yeast clone culture supernatant) (Fab, V domains shown) VH: QLQLQESGPGLVKPSETLSLTCTVSGGSISSTSYYWGWIRQPPGKGLEWIGSIHYSGNTYYNPSLKSRVTISVDTSKNQFSLKLSSVTAADTAVYYCARVHYGGYIPRRFDHWGQGTLVTVSS VL: QSVLTQPPSVSGAPGQRVTISCTGSSSNIGAGYDVHWYQQLPGTAPKLLIYGNTNRPSGVPDRFSGSKSGTSASLAITGLQAEDEADYYCQSYDYSLRGYVFGGGTKLTVL | 0.11 |  | 
3 | mAb4.0 Fab (yeast clone culture supernatant) (Fab, V domains shown) VH: QLQLQESGPGLVKPSETLSLTCTVSGGSIGSRSYYWGWIRQPPGKGLEWIGSIHYSGTTYYNPSLKSRVTISVDTSKNQFSLKLSSVTAADTAVYYCARVAPSYPRVFDYWGQGTLVTVSS VL: QSVLTQPPSVSGAPGQRVTISCTGSSSNIGAGYDVHWYQQLPGTAPKLLIYGNRNRPSGVPDRFSGSKSGTSASLAITGLQAEDEADYYCQSYDYSLRVYVFGGGTKLTVL | 0.0513 |  | 
4 | mAb6.0 Fab (yeast clone culture supernatant) (Fab, V domains shown) VH: QLQLQESGPGLVKPSETLSLTCTVSGGSITSSNYYWGWIRQPPGKGLEWIGSIDYTGSTYYNPSLKSRVTISVDTSKNQFSLKLSSVTAADTAVYYCARGKYYETYLGFDVWGQGTLVTVSS VL: QSVLTQPPSVSGAPGQRVTISCTGSSSNIGAGYDVHWYQQLPGTAPKLLIYGNTNRPSGVPDRFSGSKSGTSASLAITGLQAEDEADYYCQSYDISLSGWVFGGGTKLTVL |  | 0.0638 | 0.0656
5 | mAb7.0 Fab (yeast clone culture supernatant) (Fab, V domains shown) VH: QVQLVESGGGVVQPGRSLRLSCAASGFTFSSYGMHWVRQAPGKGLEWVAVISYGGSERYYADSVKGRFTISRDNSKNTLYLQMNSLRAEDTAVYYCAREPWYSSRGWTGYGFDVWGQGTLVTVSS VL: EIVLTQSPGTLSLSPGERATLSCRASQSVSSNYLAWYQQKPGQAPKLLIYSASSLQSGVPSRFSGSGSGTDFTLTISSLQPEDFATYYCQQTYSYPPTFGQGTKVEIK |  | 0.0604 | 0.0724
6 | mAb8.0 Fab (yeast clone culture supernatant) (Fab, V domains shown) VH: QVQLVQSGAEVKKPGSSVKVSCKASGGTFSNYAISWVRQAPGQGLEWMGGILPILGTVDYAQKFQGRVTITADESTSTAYMELSSLRSEDTAVYYCAREPWYRLGAFDVWGQGTLVTVSS VL: DIQMTQSPSSLSASVGDRVTITCRASQTIYKYLNWYQQKPGKAPKLLIYAASSLQSGVPSRFSGSGSGTDFTLTISSLQPEDFATYYCQQYSSIPYTFGQGTKVEIK |  | 0.0698 | 0.073
7 | mAb1.0 Fab (yeast clone culture supernatant) (Fab, V domains shown) VH: QVQLVESGGGVVQPGRSLRLSCAASGFSFSAYAMHWVRQAPGKGLEWVAVISYDGTNEYYADSVKGRFTISRDNSKNTLYLQMNSLRAEDTAVYYCARGIRIFTSYFDSWGQGTLVTVSS VL: QSVLTQPPSVSGAPGQRVTISCTGSSSNIGAHYDVHWYQQLPGTAPKLLIYSNNNRPSGVPDRFSGSKSGTSASLAITGLQAEDEADYYCQSYDYSLRGYVFGGGTKLTVL | 0.0523 |  | 

Reference: US20230235040A1
